Measurements taken from patent US20250320281A1.

What was measured:
Test in all cases: cell-based or functional assay
[1] = target: HIV-1 92BR020 envelope glycoprotein (Env) on pseudovirus (HIV-1)
[2] = target: HIV-1 92RW020 envelope glycoprotein (Env) on pseudovirus (HIV-1)
[3] = target: HIV-1 92TH021 envelope glycoprotein (Env) on pseudovirus (HIV-1)
[4] = target: HIV-1 92UG005 envelope glycoprotein (Env) on pseudovirus (HIV-1)
[5] = target: HIV-1 92UG024 envelope glycoprotein (Env) on pseudovirus (HIV-1)
[6] = target: HIV-1 93IN905 envelope glycoprotein (Env) on pseudovirus (HIV-1)
[7] = target: HIV-1 93UG077 envelope glycoprotein (Env) on pseudovirus (HIV-1)
[8] = target: HIV-1 94UG103 envelope glycoprotein (Env) on pseudovirus (HIV-1)
[9] = target: HIV-1 APV13 envelope glycoprotein (Env) on pseudovirus (HIV-1)
[10] = target: HIV-1 APV17 envelope glycoprotein (Env) on pseudovirus (HIV-1)
[11] = target: HIV-1 APV6 envelope glycoprotein (Env) on pseudovirus (HIV-1)
[12] = target: HIV-1 CMU02 envelope glycoprotein (Env) on pseudovirus (HIV-1)
[13] = target: HIV-1 JRCSF envelope glycoprotein (Env) on pseudovirus (HIV-1) (UniProt P20871)
[14] = target: HIV-1 JRFL envelope glycoprotein (Env) on pseudovirus (HIV-1)
[15] = target: HIV-1 MGRM-A-010 envelope glycoprotein (Env) on pseudovirus (HIV-1)
[16] = target: HIV-1 MGRM-AG-005 envelope glycoprotein (Env) on pseudovirus (HIV-1)
[17] = target: HIV-1 MGRM-C-026 envelope glycoprotein (Env) on pseudovirus (HIV-1)
[18] = target: HIV-1 MGRM-C-027 envelope glycoprotein (Env) on pseudovirus (HIV-1)
[19] = target: HIV-1 MGRM-C-028 envelope glycoprotein (Env) on pseudovirus (HIV-1)
[20] = target: HIV-1 MGRM-D-001 envelope glycoprotein (Env) on pseudovirus (HIV-1)
[21] = target: HIV-1 MGRM-D-018 envelope glycoprotein (Env) on pseudovirus (HIV-1)
[22] = target: HIV-1 NL43 envelope glycoprotein (Env) on pseudovirus (HIV-1)
[23] = target: aMLV envelope on pseudovirus (negative control virus)

B1: PGT-136 (5329_C19; 5366_P21) human monoclonal anti-HIV-1 antibody (antibody, V domains shown)
VH: QLQLQESGPGLVKPSETLSLTCTVSGGSMRGTDWGENDFHYGWIRQSSAKGLEWIGSIHWRGRTTHYKTSFRSRATLSIDTSNNRFSLTFSFVTAADTAVYYCARHKYHDIFRVVPVAGWFDPWGQGLLVTVSS
VL: EIVMTQSPPTLSVSPGETATLSCRASQNVKNNLAWYQLKPGQAPRLLIFDASSRAGGIPDRFSGSGYGTDFTLTVNSVQSEDFGDYFCQQYEEWPRTFGQGTKVDIK
neutralization IC50 [1]: > 10 µg/mL | neutralization IC80 [1]: > 10 µg/mL | neutralization IC90 [1]: > 10 µg/mL | neutralization IC95 [1]: > 10 µg/mL | neutralization IC50 [2]: 0.738 µg/mL | neutralization IC80 [2]: > 10 µg/mL | neutralization IC90 [2]: > 10 µg/mL | neutralization IC95 [2]: > 10 µg/mL | neutralization IC50 [3]: > 10 µg/mL | neutralization IC80 [3]: > 10 µg/mL | neutralization IC90 [3]: > 10 µg/mL | neutralization IC95 [3]: > 10 µg/mL | neutralization IC50 [4]: > 10 µg/mL | neutralization IC80 [4]: > 10 µg/mL | neutralization IC90 [4]: > 10 µg/mL | neutralization IC95 [4]: > 10 µg/mL | neutralization IC50 [5]: 0.0915 µg/mL | neutralization IC80 [5]: 0.619 µg/mL | neutralization IC90 [5]: 1.96 µg/mL | neutralization IC95 [5]: 5.97 µg/mL | neutralization IC50 [6]: 0.0135 µg/mL | neutralization IC80 [6]: 0.0623 µg/mL | neutralization IC90 [6]: 0.156 µg/mL | neutralization IC95 [6]: 0.379 µg/mL | neutralization IC50 [7]: > 10 µg/mL | neutralization IC80 [7]: > 10 µg/mL | neutralization IC90 [7]: > 10 µg/mL | neutralization IC95 [7]: > 10 µg/mL | neutralization IC50 [8]: > 10 µg/mL | neutralization IC80 [8]: > 10 µg/mL | neutralization IC90 [8]: > 10 µg/mL | neutralization IC95 [8]: > 10 µg/mL | neutralization IC50 [9]: > 10 µg/mL | neutralization IC80 [9]: > 10 µg/mL | neutralization IC90 [9]: > 10 µg/mL | neutralization IC95 [9]: > 10 µg/mL | neutralization IC50 [10]: > 10 µg/mL | neutralization IC80 [10]: > 10 µg/mL | neutralization IC90 [10]: > 10 µg/mL | neutralization IC95 [10]: > 10 µg/mL | neutralization IC50 [11]: > 10 µg/mL | neutralization IC80 [11]: > 10 µg/mL | neutralization IC90 [11]: > 10 µg/mL | neutralization IC95 [11]: > 10 µg/mL | neutralization IC50 [12]: > 10 µg/mL | neutralization IC80 [12]: > 10 µg/mL | neutralization IC90 [12]: > 10 µg/mL | neutralization IC95 [12]: > 10 µg/mL | neutralization IC50 [13]: > 10 µg/mL | neutralization IC80 [13]: > 10 µg/mL | neutralization IC90 [13]: > 10 µg/mL | neutralization IC95 [13]: > 10 µg/mL | neutralization IC50 [14]: > 10 µg/mL | neutralization IC80 [14]: > 10 µg/mL | neutralization IC90 [14]: > 10 µg/mL | neutralization IC95 [14]: > 10 µg/mL | neutralization IC50 [15]: > 10 µg/mL | neutralization IC80 [15]: > 10 µg/mL | neutralization IC90 [15]: > 10 µg/mL | neutralization IC95 [15]: > 10 µg/mL | neutralization IC50 [16]: > 10 µg/mL | neutralization IC80 [16]: > 10 µg/mL | neutralization IC90 [16]: > 10 µg/mL | neutralization IC95 [16]: > 10 µg/mL | neutralization IC50 [17]: 0.0065 µg/mL | neutralization IC80 [17]: 0.0285 µg/mL | neutralization IC90 [17]: 0.0687 µg/mL | neutralization IC95 [17]: 0.159 µg/mL | neutralization IC50 [18]: > 10 µg/mL | neutralization IC80 [18]: > 10 µg/mL | neutralization IC90 [18]: > 10 µg/mL | neutralization IC95 [18]: > 10 µg/mL | neutralization IC50 [19]: > 10 µg/mL | neutralization IC80 [19]: > 10 µg/mL | neutralization IC90 [19]: > 10 µg/mL | neutralization IC95 [19]: > 10 µg/mL | neutralization IC50 [20]: > 10 µg/mL | neutralization IC80 [20]: > 10 µg/mL | neutralization IC90 [20]: > 10 µg/mL | neutralization IC95 [20]: > 10 µg/mL | neutralization IC50 [21]: > 10 µg/mL | neutralization IC80 [21]: > 10 µg/mL | neutralization IC90 [21]: > 10 µg/mL | neutralization IC95 [21]: > 10 µg/mL | neutralization IC50 [22]: > 10 µg/mL | neutralization IC80 [22]: > 10 µg/mL | neutralization IC90 [22]: > 10 µg/mL | neutralization IC95 [22]: > 10 µg/mL | neutralization IC50 [23]: > 10 µg/mL | neutralization IC80 [23]: > 10 µg/mL | neutralization IC90 [23]: > 10 µg/mL | neutralization IC95 [23]: > 10 µg/mL
